Test results from publication PMC4939424, “Phosphatidylinositol 3-Kinase-Associated Protein (PI3KAP)/XB130 Crosslinks Actin Filaments through Its Actin Binding and Multimerization Properties In Vitro and Enhances Endocytosis in HEK293 Cells” (Frontiers in Endocrinology, 2016).

Target: the molecule itself
Assay: native gel or EMSA; blue native (BN)-PAGE of immuno-purified FLAG-PI3KAP/XB130 on NativePAGE Novex Bis-Tris gels, immunoblot with anti-FLAG antibody

B1: FLAG-tagged recombinant full-length PI3KAP/XB130 (natural protein, mouse, UniProt Q5DTU0-2 1-843, looked up)
chain: MERYKAQGCCCLVVQRRILQVSASLEQLLTELDDFLKVLDQENLSSAAVLKKSGLSELLRLYTKSSSSDEEYIYMNKVSVNGEQNSASPDKVPEEQGPLTNGEPSQHSSAPQKSLPDLPPPKMIPERKQPTVPKIESPEGYYEEAEPFDRSINEDGEAVSSSYESYDEDENSKGKAAPYQWPSPEASIELMRDARICAFLWRKKWLGQWAKQLCVIRDTRLLCYKSSKDHSPQLDVNLRGSSVVHKEKQVRKKGHKLKITPMNADVIVLGLQSKDQAEQWLRVIQEVSGLPSEGASEGNQYTPDAQRLNCQKPDIAEKYLSAAEYGITINGHPEIPETKDVKKKCSAGLKLSNLMNLGRKKSTSLEPPERSLETSSYLNVLVNSQWKSRWCFVRDSHLHFYQDRNRSKVAQQPLSLVGCDVLPDPSPDHLYSFRILHNGEELAKLEAKSSEEMGHWLGLLLSESGSKTDPEELTYDYVDAERVSCIVSAAKTSLLLMQRKFSEPNTYIDGLPSRDCQDDLYDDVEVSELIAVVEPAEEAAPAVDANSGSEPDRVYLDLTPVKSFLHSSSEAQAQASLPAVPHQDDVAETLTVDPKPGTTPEEPHTESPGDPEVQQRQPEVQESSEPIEPTPRITMVKLQAEQQRISFPANCPDTMASAPIAASPPVKEKLRVTSAEIKLGKNRTEAEVKRYTEEKERLERSKEEIRGHLAQLRREKRELKETLLRCTDKGVLAKLEQTLKKIDEECRMEESRRVDLELSIMEVKDNLKKAEAGPVTLGTTVDTTHLDNMSPRPQPKAATPNPPPDSTPVNSASVLKNRPLSVMVTGKGTVLQKAKEWEKKGAS
notes: also called FLAG-PI3KAP/XB130; FLAG-PI3KAPXB130; source: HEK293T, transfected (pShuttle2): purified with anti-FLAG M2 agarose and eluted with FLAG peptide; also in lysate (co-immunoprecipitation)
- binding result: binds
